From the supplement of paper PMC10065799, “High-throughput profiling of sequence recognition by tyrosine kinases and SH2 domains using bacterial peptide display” (eLife, 2023)

Columns and labels:
[1] = system: AncSZ; experiment: phosphorylation enrichment, bacterial display (enrichment ratio); higher = better substrate or ligand; peptides without Tyr show the background
[2] = molecular target: EPHB1 (UniProt P54762); experiment: as above
[3] = molecular target: EPHB2 (UniProt P29323); experiment: as above
Chain of EPHB2 (P29323 whole entry, looked up): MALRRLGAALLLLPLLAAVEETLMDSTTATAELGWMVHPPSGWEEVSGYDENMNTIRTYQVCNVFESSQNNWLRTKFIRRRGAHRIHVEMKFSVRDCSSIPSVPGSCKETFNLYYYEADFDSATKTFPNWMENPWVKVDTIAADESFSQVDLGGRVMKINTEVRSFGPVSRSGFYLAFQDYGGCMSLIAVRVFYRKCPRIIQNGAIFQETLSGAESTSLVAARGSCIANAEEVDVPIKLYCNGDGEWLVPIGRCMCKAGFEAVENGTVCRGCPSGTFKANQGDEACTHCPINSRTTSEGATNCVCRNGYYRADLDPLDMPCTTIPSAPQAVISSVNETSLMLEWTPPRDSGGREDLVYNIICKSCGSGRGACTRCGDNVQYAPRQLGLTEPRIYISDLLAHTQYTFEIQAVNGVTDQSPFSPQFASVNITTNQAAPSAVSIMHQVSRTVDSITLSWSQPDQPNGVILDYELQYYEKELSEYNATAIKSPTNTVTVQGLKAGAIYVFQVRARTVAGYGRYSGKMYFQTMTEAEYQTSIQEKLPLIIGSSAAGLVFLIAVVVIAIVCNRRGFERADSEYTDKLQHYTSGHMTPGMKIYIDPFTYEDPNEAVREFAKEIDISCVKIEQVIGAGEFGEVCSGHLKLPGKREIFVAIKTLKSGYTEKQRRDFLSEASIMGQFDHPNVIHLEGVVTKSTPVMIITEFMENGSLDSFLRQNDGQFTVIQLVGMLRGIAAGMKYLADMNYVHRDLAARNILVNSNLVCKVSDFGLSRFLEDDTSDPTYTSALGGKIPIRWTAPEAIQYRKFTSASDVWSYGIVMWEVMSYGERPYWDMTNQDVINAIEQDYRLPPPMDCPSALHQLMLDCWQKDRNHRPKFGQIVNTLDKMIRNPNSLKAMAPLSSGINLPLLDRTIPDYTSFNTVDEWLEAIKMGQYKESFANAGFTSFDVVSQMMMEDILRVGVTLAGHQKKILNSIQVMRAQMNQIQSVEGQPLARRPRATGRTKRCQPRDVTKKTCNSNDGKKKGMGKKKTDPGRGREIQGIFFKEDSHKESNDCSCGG

[4] = molecular target: FGFR1 (UniProt P11362); experiment: as above
[5] = molecular target: FGFR3 (UniProt P22607); experiment: as above
[6] = system: Fer (mouse); experiment: as above
[7] = molecular target: Fes (UniProt P07332); experiment: as above
Chain of Fes (P07332 whole entry, looked up): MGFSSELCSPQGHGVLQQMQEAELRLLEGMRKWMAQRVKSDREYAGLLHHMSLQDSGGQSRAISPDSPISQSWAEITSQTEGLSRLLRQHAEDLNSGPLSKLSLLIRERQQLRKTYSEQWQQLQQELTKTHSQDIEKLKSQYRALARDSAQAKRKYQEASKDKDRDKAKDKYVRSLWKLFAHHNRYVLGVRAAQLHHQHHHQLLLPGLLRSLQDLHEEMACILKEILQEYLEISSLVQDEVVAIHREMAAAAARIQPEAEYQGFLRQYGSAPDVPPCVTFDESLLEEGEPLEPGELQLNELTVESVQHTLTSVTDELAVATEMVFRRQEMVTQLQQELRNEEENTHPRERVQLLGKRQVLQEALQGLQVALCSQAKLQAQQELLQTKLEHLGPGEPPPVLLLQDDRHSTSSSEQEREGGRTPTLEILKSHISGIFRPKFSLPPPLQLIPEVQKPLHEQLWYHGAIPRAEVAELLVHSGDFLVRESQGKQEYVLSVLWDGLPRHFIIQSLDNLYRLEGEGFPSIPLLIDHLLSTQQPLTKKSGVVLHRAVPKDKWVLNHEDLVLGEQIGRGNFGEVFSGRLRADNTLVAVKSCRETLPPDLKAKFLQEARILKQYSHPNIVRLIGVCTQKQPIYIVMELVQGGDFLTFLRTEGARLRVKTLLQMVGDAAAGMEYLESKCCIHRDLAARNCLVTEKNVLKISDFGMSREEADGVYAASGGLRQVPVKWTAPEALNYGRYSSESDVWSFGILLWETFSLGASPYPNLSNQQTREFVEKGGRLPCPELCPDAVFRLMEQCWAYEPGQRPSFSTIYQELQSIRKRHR

[8] = molecular target: Fyn (UniProt P06241); experiment: as above
Chain of Fyn (P06241 whole entry, looked up): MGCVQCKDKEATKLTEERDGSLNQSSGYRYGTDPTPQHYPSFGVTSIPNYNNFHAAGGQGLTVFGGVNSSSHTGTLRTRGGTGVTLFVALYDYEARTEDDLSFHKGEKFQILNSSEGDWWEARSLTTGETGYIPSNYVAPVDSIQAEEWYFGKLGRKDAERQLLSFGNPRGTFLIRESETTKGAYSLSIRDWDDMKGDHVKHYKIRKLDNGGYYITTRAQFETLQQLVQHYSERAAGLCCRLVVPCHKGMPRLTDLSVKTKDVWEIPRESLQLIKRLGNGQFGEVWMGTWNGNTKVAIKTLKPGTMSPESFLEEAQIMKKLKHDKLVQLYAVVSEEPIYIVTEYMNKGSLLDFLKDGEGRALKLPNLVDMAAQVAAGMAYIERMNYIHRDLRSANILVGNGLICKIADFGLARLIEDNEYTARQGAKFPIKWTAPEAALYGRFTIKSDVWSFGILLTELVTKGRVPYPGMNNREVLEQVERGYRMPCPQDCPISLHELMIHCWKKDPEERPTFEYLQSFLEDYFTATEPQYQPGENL

[9] = molecular target: Hck (UniProt P08631); experiment: as above
Chain of Hck (P08631 whole entry, looked up): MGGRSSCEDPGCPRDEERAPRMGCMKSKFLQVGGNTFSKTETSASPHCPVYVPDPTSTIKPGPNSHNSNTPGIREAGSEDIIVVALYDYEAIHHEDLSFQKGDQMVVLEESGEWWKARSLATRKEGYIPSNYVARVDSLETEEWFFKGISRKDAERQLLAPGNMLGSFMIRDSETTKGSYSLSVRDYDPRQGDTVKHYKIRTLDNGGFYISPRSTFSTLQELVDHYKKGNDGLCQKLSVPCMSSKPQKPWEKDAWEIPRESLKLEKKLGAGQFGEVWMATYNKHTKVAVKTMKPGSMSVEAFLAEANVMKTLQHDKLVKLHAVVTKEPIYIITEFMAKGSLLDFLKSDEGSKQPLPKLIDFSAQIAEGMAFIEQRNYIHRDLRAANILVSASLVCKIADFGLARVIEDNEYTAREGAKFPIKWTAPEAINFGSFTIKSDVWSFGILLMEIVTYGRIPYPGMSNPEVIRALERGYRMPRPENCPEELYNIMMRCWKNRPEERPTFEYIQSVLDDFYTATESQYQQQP

[10] = molecular target: Jak2 (UniProt O60674); experiment: as above
[11] = molecular target: MERTK (UniProt Q12866); experiment: as above
Chain of MERTK (Q12866 whole entry, looked up): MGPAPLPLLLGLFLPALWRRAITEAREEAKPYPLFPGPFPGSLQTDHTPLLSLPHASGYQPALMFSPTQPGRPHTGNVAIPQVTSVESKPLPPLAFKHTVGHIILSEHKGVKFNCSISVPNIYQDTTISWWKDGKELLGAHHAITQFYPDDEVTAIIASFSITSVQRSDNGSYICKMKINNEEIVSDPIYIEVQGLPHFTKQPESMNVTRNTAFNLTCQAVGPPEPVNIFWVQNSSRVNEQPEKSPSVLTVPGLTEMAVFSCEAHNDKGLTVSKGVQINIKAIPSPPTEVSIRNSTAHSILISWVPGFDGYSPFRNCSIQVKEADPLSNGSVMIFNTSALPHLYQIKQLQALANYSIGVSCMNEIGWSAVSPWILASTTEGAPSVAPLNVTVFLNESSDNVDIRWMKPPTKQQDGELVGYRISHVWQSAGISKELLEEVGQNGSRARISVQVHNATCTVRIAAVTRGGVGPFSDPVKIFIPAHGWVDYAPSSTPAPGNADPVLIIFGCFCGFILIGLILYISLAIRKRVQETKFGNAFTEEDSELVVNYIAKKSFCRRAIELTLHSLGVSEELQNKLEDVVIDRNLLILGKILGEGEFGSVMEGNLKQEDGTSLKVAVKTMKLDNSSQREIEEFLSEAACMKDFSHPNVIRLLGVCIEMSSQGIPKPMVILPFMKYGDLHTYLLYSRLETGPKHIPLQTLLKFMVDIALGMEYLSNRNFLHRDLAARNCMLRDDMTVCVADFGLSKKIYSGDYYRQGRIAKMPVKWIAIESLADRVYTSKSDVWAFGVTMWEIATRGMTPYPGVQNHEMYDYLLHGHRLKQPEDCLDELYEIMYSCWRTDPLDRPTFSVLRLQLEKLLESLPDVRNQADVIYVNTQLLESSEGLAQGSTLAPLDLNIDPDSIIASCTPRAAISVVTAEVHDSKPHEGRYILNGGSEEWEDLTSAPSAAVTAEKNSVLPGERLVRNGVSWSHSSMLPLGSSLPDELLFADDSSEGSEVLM

[12] = system: c-Abl (mouse); experiment: as above
[13] = system: c-Src; experiment: as above
[14] = molecular target: Grb2 SH2 (UniProt P62993); experiment: SH2 binding enrichment of the phosphorylated peptide, bacterial display (enrichment ratio); higher = better substrate or ligand; peptides without Tyr show the background
[15] = molecular target: SHP2-C SH2; experiment: as above
[16] = molecular target: c-Src SH2; experiment: as above
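Throughout, for SH2 binding enrichment of the phosphorylated peptide, bacterial display: peptide library displayed on the E. coli surface as eCPX fusions, selected cells deep-sequenced, score is each peptide's frequency after selection divided by its frequency in the input.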
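Throughout, for phosphorylation enrichment, bacterial display: 11-residue human phosphosite peptides and single-mutation variants displayed on the E. coli surface, counted by deep sequencing, each peptide's frequency after selection divided by its frequency in the unselected input library; frequency after pTyr selection over input frequency; kinase dosed for 20-30% of maximal phosphorylation in three min.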

Chain of EPHB1 (P54762 whole entry, looked up): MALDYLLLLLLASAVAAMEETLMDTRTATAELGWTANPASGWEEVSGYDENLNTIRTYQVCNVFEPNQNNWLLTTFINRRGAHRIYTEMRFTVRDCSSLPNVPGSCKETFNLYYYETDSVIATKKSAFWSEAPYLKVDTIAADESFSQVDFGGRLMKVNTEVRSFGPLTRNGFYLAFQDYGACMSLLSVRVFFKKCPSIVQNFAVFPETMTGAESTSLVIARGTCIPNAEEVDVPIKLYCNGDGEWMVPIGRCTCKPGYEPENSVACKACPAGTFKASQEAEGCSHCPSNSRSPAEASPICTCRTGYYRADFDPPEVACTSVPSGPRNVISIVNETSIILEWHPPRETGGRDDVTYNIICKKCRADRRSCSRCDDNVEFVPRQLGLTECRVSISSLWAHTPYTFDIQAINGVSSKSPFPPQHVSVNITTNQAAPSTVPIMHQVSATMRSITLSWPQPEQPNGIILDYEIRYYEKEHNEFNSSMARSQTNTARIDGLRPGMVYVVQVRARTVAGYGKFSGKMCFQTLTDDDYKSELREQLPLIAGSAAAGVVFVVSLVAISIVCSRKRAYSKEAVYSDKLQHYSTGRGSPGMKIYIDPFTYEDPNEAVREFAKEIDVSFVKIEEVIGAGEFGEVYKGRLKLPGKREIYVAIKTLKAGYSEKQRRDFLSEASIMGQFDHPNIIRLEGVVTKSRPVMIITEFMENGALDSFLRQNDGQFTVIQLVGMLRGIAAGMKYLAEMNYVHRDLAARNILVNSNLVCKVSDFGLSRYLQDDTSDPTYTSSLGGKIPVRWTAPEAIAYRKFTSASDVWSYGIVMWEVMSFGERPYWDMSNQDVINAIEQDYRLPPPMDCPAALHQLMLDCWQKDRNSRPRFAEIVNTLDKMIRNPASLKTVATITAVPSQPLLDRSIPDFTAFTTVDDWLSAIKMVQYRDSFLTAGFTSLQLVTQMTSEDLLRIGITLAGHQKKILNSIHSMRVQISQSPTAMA

| Sequence | SH2 binding enrichment [14] | SH2 binding enrichment [15] | SH2 binding enrichment [16] | phosphorylation enrichment [1] | phosphorylation enrichment [2] | phosphorylation enrichment [3] | phosphorylation enrichment [4] | phosphorylation enrichment [5] | phosphorylation enrichment [6] | phosphorylation enrichment [7] | phosphorylation enrichment [8] | phosphorylation enrichment [9] | phosphorylation enrichment [10] | phosphorylation enrichment [11] | phosphorylation enrichment [12] | phosphorylation enrichment [13] |
| --- | --- | --- | --- | --- | --- | --- | --- | --- | --- | --- | --- | --- | --- | --- | --- | --- |
| QWQQLYDTLNA [EIF3M_Y351] | 1.16 | 0.777 | 0.636 | 1.63 | 2.15 | 1.63 | 0.556 | 0.932 | 4.62 | 1.29 | 5.55 | 8.42 | 1.06 | 6.06 | 0.546 | 3.99 |
| RALLNYIASKF [GSTA3_Y74_I71L_YF] | 0.842 | 0.579 | 0.49 | 1.13 | 0.763 | 0.624 | 0.423 | 0.767 | 0.553 | 0.956 | 0.385 | 0.721 | 0.536 | 0.597 | 0.638 | 0.587 |
| RAMRRYLEWGE [ERBB3_Y680_R683W] | 0.632 | 0.571 | 0.437 | 0.514 | 0.403 | 0.398 | 0.427 | 0.314 | 0.834 | 0.561 | 0.553 | 0.657 | 0.677 | 0.466 | 0.4 | 0.834 |
| RELGEYALAEF [ALDH1A3_Y492_YF] | 0.684 | 0.411 | 0.93 | 1.28 | 0.857 | 0.697 | 0.725 | 0.784 | 0.699 | 1.06 | 0.77 | 0.661 | 0.821 | 0.478 | 0.849 | 0.665 |
| RENGPYFASFP [GDAP2_Y487_T489A_YF] | 0.812 | 0.707 | 0.534 | 1.17 | 0.443 | 0.534 | 0.889 | 0.891 | 0.627 | 0.924 | 0.568 | 0.432 | 1.27 | 0.565 | 0.893 | 1.27 |
| RENGPYFTSFP [GDAP2_Y487_YF] | 0.878 | 0.773 | 0.714 | 1.03 | 0.417 | 0.645 | 0.764 | 0.825 | 0.591 | 1.17 | 0.479 | 0.49 | 0.991 | 0.568 | 1.19 | 0.971 |
| RESYKYFPSSL [CXXC1_Y218] | 1.06 | 0.697 | 0.688 | 1.18 | 0.651 | 0.475 | 0.51 | 1.09 | 0.82 | 0.841 | 0.843 | 0.685 | 1.15 | 0.69 | 0.77 | 0.861 |
| RFLRGYHQDAY [HLA-A_Y137_R138H] | 0.857 | 0.497 | 0.632 | 0.963 | 0.84 | 1.03 | 0.572 | 0.895 | 0.923 | 0.772 | 0.762 | 0.538 | 1.28 | 0.795 | 0.984 | 0.935 |
| RGRSTYYWPRP [GAGE12J_Y9] | 0.8 | 0.55 | 0.501 | 0.869 | 0.656 | 0.707 | 0.742 | 0.869 | 0.607 | 0.546 | 0.68 | 0.762 | 0.715 | 0.98 | 0.859 | 0.494 |
| RHPREYQDLLN [DES_Y388_L385P] | 1.06 | 0.906 | 1.29 | 0.668 | 0.537 | 0.569 | 0.377 | 0.572 | 0.327 | 0.545 | 0.698 | 0.463 | 0.785 | 0.41 | 0.487 | 0.464 |
| RHSGSYFVTSV [APC_Y2838_L2839F] | 0.787 | 0.499 | 0.547 | 0.895 | 0.517 | 0.654 | 0.574 | 0.565 | 0.444 | 0.845 | 0.598 | 0.591 | 0.89 | 0.676 | 0.741 | 0.785 |
| RKETFYILSCR [GUCY2C_Y681_T682I] | 1.15 | 0.663 | 0.519 | 1.44 | 0.546 | 0.474 | 0.553 | 0.917 | 0.665 | 1.59 | 0.373 | 0.355 | 0.953 | 0.525 | 1.1 | 0.448 |
| RLLRGHDQFAF [HLA-B_Y137_YF] | 1.06 | 0.724 | 0.748 | 0.388 | 0.327 | 0.32 | 0.309 | 0.472 | 0.316 | 0.554 | 0.289 | 0.405 | 1.07 | 0.34 | 0.716 | 0.505 |
| RLRVVYPWTQR [HBB_Y36_L33R] | 1.06 | 0.44 | 0.636 | 0.688 | 0.367 | 0.363 | 0.422 | 0.568 | 0.335 | 0.711 | 0.6 | 0.364 | 0.494 | 0.819 | 0.484 | 0.382 |
| RMDGTYACSFT [FLNB_Y704_YF] | 0.893 | 0.619 | 0.557 | 1.3 | 1.03 | 0.741 | 0.836 | 0.812 | 0.932 | 1.16 | 2.61 | 2.43 | 0.806 | 0.702 | 1.34 | 2.31 |
| RNDQVYQPLRD [CD3D_Y149] | 0.787 | 0.491 | 0.663 | 0.875 | 1.26 | 1.18 | 1.17 | 0.927 | 0.575 | 0.7 | 5.01 | 10.9 | 0.673 | 1.26 | 0.728 | 4.45 |

The next lines start with results.

| SH2 binding enrichment [14] | SH2 binding enrichment [15] | SH2 binding enrichment [16] | Sequence | phosphorylation enrichment [1] | phosphorylation enrichment [2] | phosphorylation enrichment [3] | phosphorylation enrichment [4] | phosphorylation enrichment [5] | phosphorylation enrichment [6] | phosphorylation enrichment [7] | phosphorylation enrichment [8] | phosphorylation enrichment [9] | phosphorylation enrichment [10] | phosphorylation enrichment [11] | phosphorylation enrichment [12] | phosphorylation enrichment [13] |
| --- | --- | --- | --- | --- | --- | --- | --- | --- | --- | --- | --- | --- | --- | --- | --- | --- |
| 1.38 | 0.946 | 0.784 | QTWKTYVRHQQ [SFI1_Y164_Q167H] | 0.901 | 0.548 | 0.509 | 0.535 | 2.21 | 0.465 | 1.29 | 0.476 | 0.486 | 1.3 | 0.49 | 1.36 | 0.769 |
| 0.675 | 0.423 | 0.572 | QVMDGYPMPIG [MMP14_Y353] | 0.861 | 0.673 | 0.511 | 0.529 | 0.629 | 0.53 | 0.964 | 0.564 | 0.601 | 0.987 | 0.906 | 1.03 | 0.517 |
| 1.56 | 1.25 | 1.55 | RAILLYEYVGK [NATD1_Y45_V42I] | 3.29 | 33.9 | 46.9 | 4.68 | 5.74 | 26.3 | 7.22 | 11.2 | 15.5 | 2.34 | 19.1 | 2.4 | 11.1 |
| 0.609 | 0.504 | 1.27 | RDLHTYIMPAH [PNMT_Y256_R254H] | 1.61 | 0.754 | 0.725 | 0.982 | 1.04 | 0.564 | 1.24 | 1.19 | 0.748 | 0.957 | 0.601 | 0.878 | 0.631 |
| 0.969 | 0.444 | 0.58 | RDMNACIRPSP [MMAA_Y207_Y207C] | 1.12 | 1.06 | 1.07 | 0.934 | 1.03 | 0.571 | 1.29 | 0.773 | 0.798 | 0.581 | 0.62 | 0.565 | 0.375 |
| 1.13 | 0.61 | 0.331 | RFGKVYKGHLF [ROR2_Y488] | 0.806 | 0.377 | 0.767 | 0.661 | 0.754 | 0.585 | 0.924 | 0.717 | 0.604 | 0.803 | 1.02 | 1.69 | 0.86 |
| 1.33 | 1.2 | 1.05 | RGVTHYILQTF [SLC39A4_Y359] | 1.09 | 0.394 | 0.703 | 0.664 | 0.905 | 0.582 | 1.27 | 0.499 | 0.711 | 1.24 | 0.553 | 0.944 | 0.48 |
| 1.36 | 1.71 | 0.894 | RHPLDYLRQYP [NARS2_Y138_E137D] | 0.914 | 0.799 | 0.96 | 0.405 | 0.694 | 0.594 | 1.15 | 0.547 | 0.753 | 1.01 | 0.509 | 0.627 | 0.411 |
| 1.38 | 0.938 | 0.775 | RHPLEYLRQYP [NARS2_Y138] | 0.664 | 0.523 | 0.45 | 0.75 | 0.586 | 0.536 | 1.13 | 0.579 | 0.561 | 1.22 | 0.454 | 1.37 | 0.577 |
| 0.701 | 0.572 | 0.484 | RLDGEYFTLQI [TP53_Y327_P322R] | 1.89 | 0.748 | 0.716 | 5.82 | 4.05 | 0.72 | 1.54 | 1.34 | 0.772 | 2.46 | 0.538 | 1.2 | 2.16 |
| 1.09 | 0.752 | 0.607 | RLGDLYKEEMR [VIM_Y150_E151K] | 1.08 | 0.779 | 0.672 | 0.674 | 0.832 | 0.43 | 1.17 | 0.756 | 0.824 | 0.995 | 0.362 | 0.762 | 0.587 |
| 1.04 | 0.995 | 3.41 | RLLREYQELMN [KRT75_Y434] | 0.759 | 0.691 | 0.613 | 0.785 | 0.583 | 0.465 | 0.817 | 0.746 | 0.458 | 1.11 | 0.376 | 0.67 | 0.421 |
| 1.16 | 0.968 | 4.73 | RLLRGYDQLAF [HLA-C_Y137_S140L_YF] | 0.898 | 0.464 | 0.479 | 0.415 | 0.639 | 0.498 | 0.838 | 0.435 | 0.554 | 1.08 | 0.495 | 0.926 | 0.62 |
| 1.02 | 0.863 | 1.88 | RLMLQYDAVVN [SLC25A32_Y152] | 1.32 | 0.733 | 0.703 | 0.47 | 0.674 | 0.662 | 1.67 | 0.57 | 0.702 | 1.13 | 0.414 | 0.685 | 0.406 |
| 1.15 | 0.456 | 0.527 | RLNCIYYKDQT [RS1_Y165_W163C] | 1.01 | 0.722 | 0.639 | 0.971 | 0.751 | 0.497 | 1.16 | 0.878 | 0.889 | 1.21 | 1.57 | 0.897 | 1.74 |
| 0.721 | 0.489 | 0.39 | RLRAAYNLVKR [PFKM_Y103] | 1.16 | 0.571 | 0.715 | 0.658 | 1.01 | 0.771 | 1.04 | 0.632 | 0.698 | 0.766 | 0.559 | 0.815 | 0.653 |
| 0.476 | 0.594 | 0.395 | RLRKYHLGKYL [KLB_Y906_Y906H] | 0.726 | 0.439 | 0.399 | 0.29 | 0.464 | 0.426 | 0.498 | 0.318 | 0.253 | 0.483 | 0.503 | 0.61 | 0.387 |
